Source: PMC9186069 (2022)

Biological target: T1, active C1r (human, UniProt P00736)
T1 chain 1: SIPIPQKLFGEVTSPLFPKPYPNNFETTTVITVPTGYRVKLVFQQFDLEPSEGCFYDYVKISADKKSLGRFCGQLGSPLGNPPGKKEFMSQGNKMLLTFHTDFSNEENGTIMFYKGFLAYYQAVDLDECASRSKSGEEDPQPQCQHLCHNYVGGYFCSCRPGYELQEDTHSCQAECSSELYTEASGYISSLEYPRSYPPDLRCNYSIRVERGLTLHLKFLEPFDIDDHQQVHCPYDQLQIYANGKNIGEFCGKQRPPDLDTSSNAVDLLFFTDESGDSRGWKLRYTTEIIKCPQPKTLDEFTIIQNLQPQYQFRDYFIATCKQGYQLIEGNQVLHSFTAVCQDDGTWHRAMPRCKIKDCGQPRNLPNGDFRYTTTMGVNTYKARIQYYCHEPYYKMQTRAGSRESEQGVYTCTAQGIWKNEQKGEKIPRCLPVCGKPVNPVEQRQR
T1 chain 2: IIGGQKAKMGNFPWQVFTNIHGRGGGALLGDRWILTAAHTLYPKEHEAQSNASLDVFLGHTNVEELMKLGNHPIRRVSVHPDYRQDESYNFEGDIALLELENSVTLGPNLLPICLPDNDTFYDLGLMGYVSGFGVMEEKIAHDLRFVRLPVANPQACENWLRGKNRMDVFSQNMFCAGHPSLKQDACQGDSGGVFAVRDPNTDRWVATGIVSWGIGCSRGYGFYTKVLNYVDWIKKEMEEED
Test: SPR

B1: FbpB-Δ5C (domain or fragment)
chain: GSTGSETRLDNQYKFNLNKTTNSVEQALKIAQQIKDDLDTIEFHRIKLSNHYGIRAEEHEKQTAKEELSKFSKDKLEADLKKLLCEIEKSLNAATILTTHNEYHYGGNLQSDLSAKTTLDTLKTEVSSLISKIQNSNNKDHQAYPTSYYNDYQSYQALRNPYSKLTLVK
modifications: activated two-chain form, cleaved between 463 and 464 (cleavage limits from UniProt chain features), heavy and light chains disulfide-linked; plasma-purified glycoprotein; native C1r forms a Ca-dependent-complex homodimer, but the paper does not state stoichiometry
Kd: 2.1 nM
